Data reported in article PMC2119692.

Experiments:
[1] = target: calmodulin targets in the leading lamellae (region of transverse fibers) of Swiss 3T3 fibroblasts during wound healing; assay: steady state fluorescence anisotropy imaging microscopy
[2] = target: target proteins of calmodulin in serum-deprived and serum-stimulated Swiss 3T3 fibroblasts; assay: as above

For “FITC-calmodulin (from UniProt P62157 1-149) (natural protein)”, the maximum fraction bound (fB) [1] was 50%, the fraction bound (fB) [2] was under 10% and the maximum fraction bound (fB) [2] was 95%.
